The values that follow come from publication PMC7116857.

The assay deals with wild-type alpha-synuclein (UniProt P37840). As to the kind of experiment: microfluidic free-flow electrophoresis.

For “wild-type alpha-synuclein (from UniProt P37840 1-140) (natural protein)”, the oligomer concentration (aptamer-bound, 1:1 assumed) is less than 80 nM.
